Laboratory results from paper PMC5692578 (Proceedings of the National Academy of Sciences of the …, 2017).

T1: Mcm4 (S. cerevisiae, UniProt P30665 1-933)
T1 sequence: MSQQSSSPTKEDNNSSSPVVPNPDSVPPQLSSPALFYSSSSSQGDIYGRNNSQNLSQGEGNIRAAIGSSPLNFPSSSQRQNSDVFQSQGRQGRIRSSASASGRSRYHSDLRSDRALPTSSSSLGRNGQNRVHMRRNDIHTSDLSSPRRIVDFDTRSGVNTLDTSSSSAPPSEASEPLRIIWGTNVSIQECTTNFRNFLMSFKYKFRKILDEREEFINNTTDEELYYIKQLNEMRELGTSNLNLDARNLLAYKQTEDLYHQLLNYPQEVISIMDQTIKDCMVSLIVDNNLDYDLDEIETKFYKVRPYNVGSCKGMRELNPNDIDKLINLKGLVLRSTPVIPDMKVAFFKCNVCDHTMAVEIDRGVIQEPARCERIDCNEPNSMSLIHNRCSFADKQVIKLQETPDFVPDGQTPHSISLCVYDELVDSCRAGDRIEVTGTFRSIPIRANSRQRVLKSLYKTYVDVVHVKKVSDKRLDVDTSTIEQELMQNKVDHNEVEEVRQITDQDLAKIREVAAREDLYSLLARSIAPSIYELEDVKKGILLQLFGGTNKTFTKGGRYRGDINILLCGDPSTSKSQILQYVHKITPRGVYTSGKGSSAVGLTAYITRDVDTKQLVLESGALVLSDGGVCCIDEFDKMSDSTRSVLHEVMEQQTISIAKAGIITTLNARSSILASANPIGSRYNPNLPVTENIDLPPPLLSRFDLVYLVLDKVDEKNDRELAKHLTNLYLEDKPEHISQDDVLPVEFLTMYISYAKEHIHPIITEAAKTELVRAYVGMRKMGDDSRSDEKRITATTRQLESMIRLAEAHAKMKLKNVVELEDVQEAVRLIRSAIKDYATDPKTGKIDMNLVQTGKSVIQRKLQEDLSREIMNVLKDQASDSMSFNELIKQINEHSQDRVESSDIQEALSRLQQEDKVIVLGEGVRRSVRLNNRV

B1: Mcm7 (natural protein)
chain: MSAALPSIQLPVDYNNLFNEITDFLVTFKQDTLSSDATRNENEDENLDAENIEQHLLEKGPKYMAMLQKVANRELNSVIIDLDDILQYQNEKFLQGTQADDLVSAIQQNANHFTELFCRAIDNNMPLPTKEIDYKDDVLDVILNQRRLRNERMLSDRTNEIRSENLMDTTMDPPSSMNDALREVVEDETELFPPNLTRRYFLYFKPLSQNCARRYRKKAISSKPLSVRQIKGDFLGQLITVRGIITRVSDVKPAVEVIAYTCDQCGYEVFQEVNSRTFTPLSECTSEECSQNQTKGQLFMSTRASKFSAFQECKIQELSQQVPVGHIPRSLNIHVNGTLVRSLSPGDIVDVTGIFLPAPYTGFKALKAGLLTETYLEAQFVRQHKKKFASFSLTSDVEERVMELITSGDVYNRLAKSIAPEIYGNLDVKKALLLLLVGGVDKRVGDGMKIRGDINVCLMGDPGVAKSQLLKAICKISPRGVYTTGKGSSGVGLTAAVMKDPVTDEMILEGGALVLADNGICCIDEFDKMDESDRTAIHEVMEQQTISISKAGINTTLNARTSILAAANPLYGRYNPRLSPLDNINLPAALLSRFDILFLMLDIPSRDDDEKLAEHVTYVHMHNKQPDLDFTPVEPSKMREYIAYAKTKRPVMSEAVNDYVVQAYIRLRQDSKREMDSKFSFGQATPRTLLGIIRLSQALAKLRLADMVDIDDVEEALRLVRVSKESLYQETNKSKEDESPTTKIFTIIKKMLQETGKNTLSYENIVKTVRLRGFTMLQLSNCIQEYSYLNVWHLINEGNTLKFVDDGTMDTDQEDSLVSTPKLAPQTTASANVSAQDSDIDLQDA

How the values were obtained:
Assay in all cases: cryo-EM structure
Mcm7 = target: B1
Mcm4 = target: T1, Mcm4
Mcm3 = Mcm3 (S. cerevisiae, UniProt P24279 1-971)
Mcm3, sequence (P24279 whole entry): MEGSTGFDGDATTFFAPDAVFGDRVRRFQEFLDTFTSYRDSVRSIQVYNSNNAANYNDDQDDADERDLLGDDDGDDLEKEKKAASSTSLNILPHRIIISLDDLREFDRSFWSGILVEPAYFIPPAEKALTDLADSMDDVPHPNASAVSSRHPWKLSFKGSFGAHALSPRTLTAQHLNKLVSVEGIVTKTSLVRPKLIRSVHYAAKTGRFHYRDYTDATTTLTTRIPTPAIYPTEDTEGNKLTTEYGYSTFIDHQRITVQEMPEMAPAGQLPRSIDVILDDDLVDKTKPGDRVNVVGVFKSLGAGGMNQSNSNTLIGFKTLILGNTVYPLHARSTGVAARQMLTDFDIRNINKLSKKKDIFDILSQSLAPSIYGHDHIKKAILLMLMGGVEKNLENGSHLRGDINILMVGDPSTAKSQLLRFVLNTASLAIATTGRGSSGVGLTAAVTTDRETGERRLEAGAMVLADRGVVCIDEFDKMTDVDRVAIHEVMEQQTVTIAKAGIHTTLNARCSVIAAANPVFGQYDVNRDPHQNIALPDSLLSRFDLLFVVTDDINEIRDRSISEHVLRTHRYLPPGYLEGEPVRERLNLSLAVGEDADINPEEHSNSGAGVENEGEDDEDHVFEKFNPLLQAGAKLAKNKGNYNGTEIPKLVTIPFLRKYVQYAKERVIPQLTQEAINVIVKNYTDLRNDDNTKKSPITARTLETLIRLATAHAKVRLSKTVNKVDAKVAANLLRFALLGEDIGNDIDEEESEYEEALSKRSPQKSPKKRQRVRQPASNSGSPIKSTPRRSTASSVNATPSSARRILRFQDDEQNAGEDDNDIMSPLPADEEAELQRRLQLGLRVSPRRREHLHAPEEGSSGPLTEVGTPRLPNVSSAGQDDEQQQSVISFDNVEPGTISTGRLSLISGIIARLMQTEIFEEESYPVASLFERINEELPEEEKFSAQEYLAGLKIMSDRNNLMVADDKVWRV

Row | Binder | binding result (Mcm7) | binding result (Mcm4) | binding result (Mcm3)
1 | Mcm5 (natural protein) MSFDRPEIYSAPVLQGESPNDDDNTEIIKSFKNFILEFRLDSQFIYRDQLRNNILVKNYSLTVNMEHLIGYNEDIYKKLSDEPSDIIPLFETAITQVAKRISILSRAQSANNNDKDPENTSMDTDSLLLNSLPTFQLILNSNANQIPLRDLDSEHVSKIVRLSGIIISTSVLSSRATYLSIMCRNCRHTTSITINNFNSITGNTVSLPRSCLSTIESESSMANESNIGDESTKKNCGPDPYIIIHESSKFIDQQFLKLQEIPELVPVGEMPRNLTMTCDRYLTNKVIPGTRVTIVGIYSIYNSKNGAGSGRSGGGNGGSGVAIRTPYIKILGIQSDVETSSIWNSVTMFTEEEEEEFLQLSRNPKLYEILTNSIAPSIFGNEDIKKAIVCLLMGGSKKILPDGMRLRGDINVLLLGDPGTAKSQLLKFVEKVSPIAVYTSGKGSSAAGLTASVQRDPMTREFYLEGGAMVLADGGVVCIDEFDKMRDEDRVAIHEAMEQQTISIAKAGITTVLNSRTSVLAAANPIYGRYDDLKSPGDNIDFQTTILSRFDMIFIVKDDHNEERDISIANHVINIHTGNANAMQNQQEENGSEISIEKMKRYITYCRLKCAPRLSPQAAEKLSSNFVTIRKQLLINELESTERSSIPITIRQLEAIIRITESLAKLELSPIAQERHVDEAIRLFQASTMDAASQDPIGGLNQASGTSLSEIRRFEQELKRRLPIGWSTSYQTLRREFVDTHRFSQLALDKALYALEKHETIQLRHQGQNIYRSGV | binds | – | –
2 | B1 | – | binds | binds
